Data reported in patent publication US20030229003, “Use of transcription factors for treating inflammation and other diseases” (published 2003).

How the values were obtained:
ESE-1 (ELF3) [1] = biological target: T1, ESE-1 (ELF3) (Homo sapiens, UniProt P78545 P78545:1-371); test: cell_activity
T1 sequence: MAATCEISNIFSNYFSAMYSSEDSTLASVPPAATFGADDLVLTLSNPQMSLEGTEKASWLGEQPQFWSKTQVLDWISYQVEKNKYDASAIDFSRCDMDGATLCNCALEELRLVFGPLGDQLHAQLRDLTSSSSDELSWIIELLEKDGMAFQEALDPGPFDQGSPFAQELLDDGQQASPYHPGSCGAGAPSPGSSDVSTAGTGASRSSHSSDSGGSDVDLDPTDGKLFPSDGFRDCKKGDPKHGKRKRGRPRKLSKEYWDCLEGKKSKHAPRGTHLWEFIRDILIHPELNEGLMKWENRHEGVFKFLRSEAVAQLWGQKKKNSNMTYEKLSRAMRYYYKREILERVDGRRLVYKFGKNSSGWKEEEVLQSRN

ESE-1 (ELF3) [2] = biological target: T1, ESE-1 (ELF3); test: EMSA; strong specific complex; data not shown; conditions: tags: pCI/ESE-1, TNT rabbit reticulocyte lysate; label: 32P
ESE-1 (ELF3) [3] = biological target: T1, ESE-1 (ELF3); test: EMSA; conditions: tags: pCI/ESE-1, TNT rabbit reticulocyte lysate; label: 32P
Method: Having identified putative targets for ESE- 1 we were also interested to determine whether ESE- 1 could specifically bind to Ets sites within the NOS2 promoter. An Ets binding site was identified which is highly homologous to the Ets consensus binding site for ESE- 1 (Oettgen, P., et al., 1999, J Biol Chem 274:29439-52). […] As is shown in FIG. 6, ESE- 1 binds equally well to both Ets sites.
In vitro transcription-translation was performed in TNT rabbit reticulocyte lysate (Promega) using the pCI/ESE- 1 vector as described (Oettgen, P., et al. et al. 1997, Mol Cell Biol 17:4419-33). EMSAs and supershift assays were performed using 2 μl of in vitro translation product or 3 μl of whole cell extract and (³²P)-labeled double stranded oligonucleotide probes in the presence or absence of competitor oligonucleotides (1, 10 or 100 ng) or antibodies as described (Akbarali, Y., et al. 1996. J Biol Chem 271:26007-12). Whole cell extracts were made from U- 138 Mg cells after incubation with IL-1β for 0, 3, and 8 hours using as lysis buffer 1% Triton X- 100, 25 mM glycylglycine pH7.8, 15 mM MgSO₄, 4 mM EGTA, 1 mM dithiothreitol, phenylmethylsulfonyl fluoride, Aprotinin, and Pepstatin. All antibodies for super-shift assays (2 μl per assay) were obtained from Santa-Cruz Technologies (CA) (Oettgen, P., et al. 1996, Mol Cell Biol 16:5091-106).

Molecule: NOS2 promoter -234/+31
- activity (ESE-1 (ELF3) [1]; luciferase transactivation, RAW cells, promoter length in Example 1M not stated): 12 fold

Molecule: COX-2 promoter -170/+103
- activity (ESE-1 (ELF3) [1]; luciferase, RAW 264.7): > 10 fold

B1: COX-2 promoter Ets site 1 (dsDNA)
DNA 1: GCACGTCCAGGAACTCCTCAGC
DNA 2: GCTGAGGAGTTCCTGGACGTGC
- binding result (ESE-1 (ELF3) [2]): binds

B2: COX-2 promoter Ets site 3 (dsDNA)
DNA 1: CGAAAAGGCGGAAAGAAACAGT
DNA 2: ACTGTTTCTTTCCGCCTTTTCG
- binding result (ESE-1 (ELF3) [2]): binds

B3: murine PSP promoter Ets site (dsDNA)
DNA 1: TCGACGAACATCCAGGAAATAGGGCTC
DNA 2: TCGAGAGCCCTATTTCCTGGATGTTCG
- binding result (ESE-1 (ELF3) [3]): binds
